Measurements as given in paper PMC11016934, “Mechanism of GTPase activation of a prokaryotic small Ras-like GTPase MglA by an asymmetrically interacting MglB dimer” (The Journal of Biological Chemistry, 2024).
Positions count from the first letter of the chain named. One block for each molecule: values may come before it.

Experiments:
[1] = molecular target: MglB^ΔCt with C-terminal Strep-tag (MglB^ΔCt-Strep) (Myxococcus xanthus) (UniProt Q1DB03); test: SEC-MALS; Superdex 200 Increase 10/300 GL, room temperature (about 25 °C), 50 mM NaCl, 50 mM Tris pH 8.0, 0.4 ml/min; purified linked complexes loaded at approximately 5 mg/ml, 110 μl
[2] = molecular target: MglA-link-MglB^ΔCt with C-terminal hexahistidine tag (mglA-link-mglB^ΔCt-H6) (Myxococcus xanthus) (UniProt Q1DB03)
[3] = molecular target: MglA-link-MglB1 with C-terminal hexahistidine tag (mglA-link-mglB-H6) (Myxococcus xanthus) (UniProt Q1DB03)
[4] = molecular target: T1, MglB with C-terminal Strep-tag (MglB-Strep) (Myxococcus xanthus), Q1DB03; test: SEC-MALS; Superdex 200 Increase 10/300 GL, room temperature (about 25 °C), 50 mM NaCl, 50 mM Tris pH 8.0, 0.4 ml/min; purified linked complexes loaded at approximately 5 mg/ml, 110 μl; details: remark: other sources report otherwise
T1 chain: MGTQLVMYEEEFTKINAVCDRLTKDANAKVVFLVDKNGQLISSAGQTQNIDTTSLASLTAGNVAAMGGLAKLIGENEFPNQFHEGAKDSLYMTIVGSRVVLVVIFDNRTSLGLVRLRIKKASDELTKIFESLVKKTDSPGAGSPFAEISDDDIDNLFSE

[5] = molecular target: the molecule itself; test: SEC; purified MglB^WT, MglB^ΔN and MglB^N37,R98A (Fig. S1B)
[6] = molecular target: T2, MglA (mutual gliding protein A), unlinked (Myxococcus xanthus) (UniProt Q1DB04)
T2 sequence: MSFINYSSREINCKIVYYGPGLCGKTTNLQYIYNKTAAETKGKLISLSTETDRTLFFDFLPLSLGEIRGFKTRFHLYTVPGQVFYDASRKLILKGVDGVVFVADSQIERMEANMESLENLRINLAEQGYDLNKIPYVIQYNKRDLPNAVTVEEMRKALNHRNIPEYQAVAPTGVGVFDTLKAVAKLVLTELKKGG

[7] = molecular target: T3, MglB, unlinked wild type (Myxococcus xanthus), Q1DB03; test: SEC; purified MglB^WT, MglB^ΔN and MglB^N37,R98A (Fig. S1B); details: remark: other sources report otherwise
T3 chain: T1 chain

B2: MglB with C-terminal Strep-tag (MglB-Strep), Q1DB03 1-159 (natural protein)
chain: T1 chain
- stoichiometry N [4]: 2

B3: MglB^N37,R98A (natural protein, Myxococcus xanthus)
chain: T1 chain with N37A, R98A
notes: MglB, Myxococcus xanthus, Asn-37 and Arg-98 mutated to alanines; also called double mutant of Asn-37 and Arg-98 to alanines; source: E. coli BL21AI, purified (as MglB, then Superdex 75 and MonoQ)
- binding result [5]: binds

B6: MglB^ΔN (natural protein, Myxococcus xanthus)
chain: MYEEEFTKINAVCDRLTKDANAKVVFLVDKNGQLISSAGQTQNIDTTSLASLTAGNVAAMGGLAKLIGENEFPNQFHEGAKDSLYMTIVGSRVVLVVIFDNRTSLGLVRLRIKKASDELTKIFESLVKKTDSPGAGSPFAEISDDDIDNLFSE
notes: MglB, Myxococcus xanthus, with the N-terminal β-strand (residues 2 to 7) deleted; Dimer by SEC; also called MglB with residues 2 to 7 deleted; source: E. coli BL21AI, purified (as MglB, then Superdex 75 and MonoQ)
- stoichiometry N [5]: 2

Further lines, results first:

- stoichiometry N [1]: 2
- GTPase activity kobs of the linked complex {AB^ΔCt} (NADH-coupled assay) [2]: 0.1 min⁻¹
- GTPase activity kobs of the linked complex {AB1B2^ΔCt} (NADH-coupled assay) [3]: 0.17 min⁻¹
Molecule: MglB^ΔCt with C-terminal Strep-tag (MglB^ΔCt-Strep) (from UniProt Q1DB03 1-159) (domain or fragment)

- GTPase activity kobs of the linked complex {AB1^ΔCtB2} (NADH-coupled assay) [2]: 0.07 min⁻¹
- GTPase activity kobs of the linked complex {AB^WT} (NADH-coupled assay, GDP released per minute per μM enzyme) [3]: 0.2 min⁻¹
B1: MglB with C-terminal Strep-tag (MglB-Strep) (natural protein)
chain: T1 chain

- GTPase activity kobs of unlinked AB^ΔCt (NADH-coupled assay) [6]: 0.08 min⁻¹
B4: MglB^ΔCt, unlinked (domain or fragment)
chain: T1 chain

- stoichiometry N [7]: 2
B5: MglB, unlinked wild type, Q1DB03 1-159 (natural protein)
chain: T1 chain
